These results are taken from a protein production outcome set (Wang et al. 2014).

This series can be described thus: label from the status in PepcDB records.
As to “MMKKSATTSSACNGCPAHSGNKLRRMGTDAERYDFTIALAGNPNTGKSTVFNALTGLKQHTGNWPGKTVEKAEGAFSYAGSSYKIVDLPGTYSLLSTSEDEEIARDFILFGKPDVTLIVADATRLERNMNLILQILEITDRAVLCANLMDEAERNGVEIDLRGLSRRLGIPVVGASARSGEGISDLLSALSEVAQGIYRCTPHRLTSIGTEIDTRIDSLAESIRLFHPDTPNSRWLALRLTEGDRRVENILYADNEAPAEKLKKEVDEFRRNFGEDLHDQLSEALYSDAGKICQEVITQANKRGRTPLDIKIDRIVTSRKWGFPIMLLMLALVLWITIVGSNYPSQWLSDSLVGILHPLLKTRATGFLPDWLSGFLIDGVYLATAWVVSVMLPPMAIFFPLFTLLEDFGFLPRVAFNLDELFRRSGAHGKQALTMTMGFGCNAAAIINTRIIDSQRERLIAILTNNFSLCNGRWPTQILLATIFLTPAVPAYLRGVIGIGSVVAIALLGIAFMFFFSWVLSRTLLRGQVSTFNLELPPYRPPQFWQTIYKSIVDRTLVVLWRAVVFAAPAGALIWLTCNIQIGGVGIAEYLIDLLDGPGWLMGLNGVILLAYVLAIPANEIVIPTILMLTVLTTGIDGGTGAGVMFEADGTAETARLFEAGGWTMLTGINLMLFCLLHNPCSTTLFNIYKETGSRKWTLLAALIPLATGFVVTVAVAFVWRLVGG”, the protein production entry is “failed”.
For “MMLGPEGGEGYVVKLRGLPWSCSIEDVQNFLSDCTIHDGVAGVHFIYTREGRQSGEAFVELESEDDVKLALKKDRESMGHRYIEVFKSHRTEMDWVLKHSGPNSA” the value was “not failed”.
For “MMNASSISSRFKDLFVTPSIVFDFDGTLAIGHGPVLAYALCVAPEGSKDFLERVRRELRRYDDGQSIYRDGYDIVAKLASELGIDDGTMSVAYGESRKLLGSDLAPVEHVRGIKDILSSLKGHARLVLATNAPENGVHDLLRQWGVADLFDQLHFVVGKPAGLISIISDLQLDGPVLAVGDIYEFDLSPAAQLGADTALVGATATISEAKVSMRGDSIADLPLLAWVSSRVSSS” the value was “failed”; for “MMNKPAPRELEVIRSTYITPHMLRITLGGAGLAGFPADQESAYIKLLFPQAGERPLMRTYTIRQQRDDEIDVDFVLHDTDGPASSWAKTAQVGELIQIGGPGLKKLINFEADWFLLAGDMTALPAISVNLAKLPNNAVGYAVIEVLSEADIQPLVHPEHVELHWVINPEADPEGRPLVERIAQLPWLAGEPAVWIACEFNSMRALRRHFKQAHALPKSHFYTSSYWKIGCNEGEHKLVKQEDEQLENGASV”, “not failed”; for “MMNTKVALKQLMATHFITVDVPCPECGGAMTAWKEPTPDTPPRCPPVCMECGYRSVKKKEATTAKNLYESSLIKKAKDYFLNGSVLTDRKSLHKKISNYYPSNQESTKAKNISMEFCEKTLLGEIHHLILTGGVGVGKSHLAIGCLNEILVKSNYSKKVLFVSYRELLEQLKFAMNDEEARKAITGVAMSEIKAADVVVLDDIGAELGDFNKRDEKGNLILSRASNFDIDTLTGILESRIDKPTIITSNLKSKEIKYCYGERIVSRMATHSNGFMHRFTNTKDYRLKTALEHHHHHH”, “not failed”.
Turning to “MMPPPAVPPQLPEVPAADLPRVRAPLSTYRRPQRTDFVTPTGGPFFAKQDKALNTIDLKMAHDLKLRGYRVKVAVVDEGVRSDHPLLNVEKKYGGDYMADGTRTYPDPKRQGRHGTSVALVLAGQDTDTYRGGVAPNADLYSANIGTRAGHVSDEAAFHAWNDLLGHGIKIFNNSFATEGPEGEQRVKEDRNEYHSAANKQNTYIGRLDRLVRDGALLIFAAGNGRPSGRAYSEVGSVGRTPRVEPHLQRGLIVVTAVDENGRLETWANRCGQAQQWCLAAPSTAYLPGLDKDNPDSIHVEQGTSLSAPLVTGAAVLVQDRFRWMDNDNLRTTLLTTAQDKGPYGVDPQYGWGVLDVGRAVQGPAQFAFGDFVARVTDTSTFGNDISGAGGLVVDGPGALVLAGSNTYAGRTTIKRGTLDVFGSVTSAVTVEPGGTLTGIGTVGTVTNQGTVVNKEAGLHVKGDYSQTAQGLLVTDIGSLLDVSGRASLAGRLHVDDIRPGYVGGDGKSVPVIKAGAVSGVFATLTRSPGLLLNARLDYRPQAVYLTMRRAERVHAAAQRGADDGRRASVLAVAERLDAAMRELDALPESQRDAAAPAAAIGRIQRVQSRKVLQDNLYSLAGATYANAAAVNTLEQNRWMDRLENHLAQAGGERVAAIAEYRHGQLRWRPDGLQGRQRGNGIMLGLAREVSAGLSLAAALTHSRTHWDESSGAPARDNAAMTTPGVLLGARRAWEDGWFVQGALGYSRYRNQATRHISLGDAGHTVGATARGHVWQADAGLGRQWTLAPGHTLAPRAGLQLTHLRQQGFSESGAQGLGLRAHALTRTVPTLWAQLQSRHAFMLGATPMTAQLQLGVWHDLRARRYAASGGFAGLAQDQGASGYWPVPRTRVQGALGLRAEFAPGLVLGLGYTGQLATHWVDHQLSASLTYRY”, the protein production entry is reported as “failed”.
